Where no end group is shown, it is not given here.

The target in this experiment is purified human fibrinogen (human) (UniProt P02671). The experiment is described as follows: cell-based or functional assay.
Chain of purified human fibrinogen (human) (P02671 20-629 limits assumed, chain 1 of 3): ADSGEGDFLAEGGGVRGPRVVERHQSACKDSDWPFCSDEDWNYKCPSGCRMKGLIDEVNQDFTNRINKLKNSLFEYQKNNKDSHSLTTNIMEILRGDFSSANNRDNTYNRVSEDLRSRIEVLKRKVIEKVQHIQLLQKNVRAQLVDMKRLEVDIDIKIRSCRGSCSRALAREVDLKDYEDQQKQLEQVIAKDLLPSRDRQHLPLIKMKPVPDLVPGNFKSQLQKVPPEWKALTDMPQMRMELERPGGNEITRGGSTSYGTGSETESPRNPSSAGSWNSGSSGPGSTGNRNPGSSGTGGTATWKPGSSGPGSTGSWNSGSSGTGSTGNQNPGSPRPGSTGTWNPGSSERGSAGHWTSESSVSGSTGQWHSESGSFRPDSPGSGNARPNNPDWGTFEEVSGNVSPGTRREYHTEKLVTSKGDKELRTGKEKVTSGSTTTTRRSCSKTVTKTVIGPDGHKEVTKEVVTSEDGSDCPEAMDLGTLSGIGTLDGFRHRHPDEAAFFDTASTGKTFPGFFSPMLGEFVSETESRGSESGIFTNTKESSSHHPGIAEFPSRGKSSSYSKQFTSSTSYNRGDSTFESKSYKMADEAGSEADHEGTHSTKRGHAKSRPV
Chain of purified human fibrinogen (human) (P02675 31-491 limits assumed, chain 2 of 3, further chain): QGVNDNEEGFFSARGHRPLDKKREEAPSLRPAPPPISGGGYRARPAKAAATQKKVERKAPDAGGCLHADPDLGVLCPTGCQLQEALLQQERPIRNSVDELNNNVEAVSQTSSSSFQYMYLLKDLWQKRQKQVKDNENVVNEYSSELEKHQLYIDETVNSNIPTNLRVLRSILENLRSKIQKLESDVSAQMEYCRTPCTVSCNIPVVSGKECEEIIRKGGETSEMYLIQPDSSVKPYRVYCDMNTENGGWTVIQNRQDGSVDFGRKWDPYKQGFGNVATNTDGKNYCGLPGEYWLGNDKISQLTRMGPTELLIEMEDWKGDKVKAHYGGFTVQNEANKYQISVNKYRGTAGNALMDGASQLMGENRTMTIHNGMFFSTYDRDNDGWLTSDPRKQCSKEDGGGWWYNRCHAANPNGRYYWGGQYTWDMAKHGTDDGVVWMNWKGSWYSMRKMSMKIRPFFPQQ
Chain of purified human fibrinogen (human) (P02679 other isoform, or with tags, fused parts or gaps limits assumed, chain 3 of 3, further chain): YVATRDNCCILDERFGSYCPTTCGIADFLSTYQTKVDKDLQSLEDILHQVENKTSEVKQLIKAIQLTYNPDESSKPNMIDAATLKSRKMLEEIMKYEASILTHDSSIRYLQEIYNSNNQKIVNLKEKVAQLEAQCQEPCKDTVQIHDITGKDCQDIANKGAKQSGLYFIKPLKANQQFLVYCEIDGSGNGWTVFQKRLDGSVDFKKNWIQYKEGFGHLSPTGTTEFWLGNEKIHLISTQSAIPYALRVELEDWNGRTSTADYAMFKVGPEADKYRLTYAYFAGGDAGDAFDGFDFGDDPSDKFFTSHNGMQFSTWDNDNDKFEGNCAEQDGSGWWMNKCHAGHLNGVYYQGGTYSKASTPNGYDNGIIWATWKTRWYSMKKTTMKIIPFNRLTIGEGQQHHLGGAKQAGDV

B1: Peptide dendrimer No. 13 (peptide, part only)
chain 1: GPRPG
chain 2: GHRPY
modifications: not fully specified (C-terminus); also: chimeric four-branch dendrimer: two copies of each chain, C-termini attached to a branched core of undefined make-up
Consider B1, for which the Clotting activity (seconds), non-irradiated control is 4.3 s; the Clotting activity (seconds), storage for 2 weeks post irradiation was determined as 9.4 s; the Clotting activity (seconds), storage for 4 weeks post irradiation was found to be 10 s.
